Assay results reported in publication PMC5737660.
Read-outs that look alike come from different tables or passages of the source.

Legend:
[1] = molecular target: CdiI^NC101-His6 immunity protein, crystallography construct (E. coli NC101); experiment: crystal structure
[2] = molecular target: CdiI^NC101-His6 immunity protein, crystallography construct (E. coli NC101); experiment: crystal structure; remark: listed apart in the source

“CdiI^NC101-His6 immunity protein, crystallography construct (natural protein)” was tested. Which stoichiometry N [1] did it give?
Its stoichiometry N is 2.

What about the stoichiometry N [2] of the same substance?
The stoichiometry N was 2.
